Test results reported in patent US11921118B2, “Methods for proteome labeling” (The Board of Trustees of the Leland Stanford Junior …, priority 2018, dated 2024).

Tests used:
HEK293T = assay: Proteome labeling after transient transfection and AzY/AzF incubation, DIBO-Alexa Fluor 647 in-gel fluorescence; assay type: cell-based, human; settings: transient transfection, 2 mM AzY or AzF
Description: (§1) Cells were lysed, pre-treated with iodoacetamide (IAM) to block background thiol-yne additions (25), and treated with dibenzocyclooctyne (DIBO)-Alexa Fluor 647 dye for copper-free, strain-promoted azide-alkyne cycloaddition.
(§2) Cell transfection, click amino acid labeling, and selection of stably transfected B16-F10 cells. Unless otherwise noted, cells were transiently transfected with Lipofectamine 3000 (Invitrogen) 24 hours prior to 4-Azido-L-phenylalanine (AzF, Chem-Implex) or 3-Azido-L-tyrosine (AzY, Watanabe Chemical Industries) labeling. For initial assessment of labeling across mammalian cell lines, transfected cells were incubated with 2 mM of AzF, AzY, tyrosine, or phenylalanine for 30 hours in 12-well plates prior to lysis. To characterize enzyme selectivity and rate of substrate activation, transfected HEK293T cells were incubated with varying amounts of endogenous and non-canonical amino acids for 24 hours in 12-well plates prior to lysis. For affinity enrichment prior to shotgun mass spectrometry, transfected HEK293T cells were incubated with 125 μM of endogenous and non-canonical amino acids for 24 hours in 10 cm dishes prior to lysis. B16-F10 cells were transfected with mutant synthetases in the Piggybac vector PB513B-1 for 72 hours prior to puromycin selection at 10 μg/ml for 10 days.
(§3) Copper-free reaction of DIBO-Alexa Fluor 647 with click-labeled cell lysates for in-gel fluorescence. After washing in PBS twice, cells were lysed 1% SDS in PBS with EDTA-free protease inhibitor (Roche). […] Protein concentrations were measured with a BCA Protein Assay Kit (Pierce) to ensure equal loading across gel wells (˜23 μg). […] Colloidally stained gels were imaged in the 800-nm channel of an Odyssey CLx (LI-COR), where no bleed-through of the Alexa Fluor 647 signal was detected. Quantification of signal intensities of labeled proteomes from each gel lane were analyzed in ImageJ as before, but with slight modifications (36). […] Instead, the mean and standard deviations were calculated from biological triplicates of whole gel lanes, less the dye front.

CHO = assay: as above; assay type: cell-based, hamster; settings: transient transfection, 2 mM AzY or AzF
Description: as §1, §2, §3

B16-F10 = assay: as above; assay type: cell-based, mouse; settings: transient transfection, 2 mM AzY or AzF
Description: as §1, §2, §3

HEK293T cells = assay: Selectivity of ncAA activation over canonical amino acid, in-gel AF647 fluorescence fitted to Michaelis-Menten kinetics; assay type: cell-based, human; settings: equimolar concentrations of the two amino acids; serum-containing media, 24 h
From the text: FIGS. 2A-2E: Identification and characterization of TyrRS and PheRS variants for bioorthogonal labeling of mammalian proteomes with AzY and AzF. FIG. 2A: A single substitution (Y43G) in the amino acid binding site of yeast tyrosyl-tRNA synthetase (ScTyrY43G) enables charging of the azido tyrosine analog AzY onto tRNA^TYr before incorporation into nascent proteins of host cells. FIG. 2B: A single substitution (T413G) in the amino binding site of human or mouse phenylalanyl-tRNA synthetase (MmPheT413G) enables charging of the azido phenylalanine analog AzF onto tRNA^Phe. FIG. 2C: In-gel fluorescence image of Alexa Fluor 647 labeling corresponding to AzY or AzF incorporation into mammalian cell proteomes. ‘WT’: no exogenous amino acid added to media. ‘CP1 switch’: an E. coli TyrRS with the human CP1 peptide engrafted. ‘Mj TyRS’: TyrRS from the species M. jannaschii, without its accompanying tRNA. FIG. 2D: High selectivity of ScTyrY43G for AzY over Tyr. In-gel Alexa Fluor 647 fluorescence and coomassie blue staining of whole gel lanes were quantified to assess the degree of proteome labeling normalized to total protein content. […]
Copper-free reaction of DIBO-Alexa Fluor 647 with click-labeled cell lysates for in-gel fluorescence. […] Protein concentrations were measured with a BCA Protein Assay Kit (Pierce) to ensure equal loading across gel wells (˜23 μg). […]

| Molecule | proteome labeling (HEK293T) | proteome labeling (CHO) | proteome labeling (B16-F10) | activation of AzF faster than Phe (HEK293T cells) | activation of AzY faster than Tyr (HEK293T cells) |
| --- | --- | --- | --- | --- | --- |
| MmPheT413G: mouse phenylalanyl-tRNA synthetase with T413G substitution, charges AzF onto tRNA-Phe; SEQ ID NO:5 (protein) MADNPVLELLLRRLEVADGGLDSAELATQLGVEHQAVVGAVKSLQALGEVIEAELRSTKCWELTTEGEEIAREGSHEARVFRSIPLEGLVQSELMHLPSGKVGFSKAMSNKWIRVDKSAADGPRVFRVVDSIEDEVQKRLQLVQAGQAEKLAEKERNELRKRKLLTEVILKTYWVSKGKAFSTSVSKQEAELSPEMISSGSWRDRPFKPYNFSARGVLPDSGHLHPLLKVRSQFRQIFLEMGFTEMPTDNFIESSFWNFDALFQPQQHPARDQHDTFFLRDPAEALQLPMGYVQRVKRTHSQGGYGSQGYKYTWKLEEARKNLLRTHTTAASARALYQLAQKKPFTPAKYFSIDRVFRNETLDATHLAEFHQIEGVIADHGLTLGHLMGVLREFFTKLGITQLRFKPAYNPYGEPSMEVFSYHQGLKKWVEVGNSGVFRPEMLLPMGLPENVSVIAWGLSLERPTMIKYGINNIRELVGHKVNLQMVYDSPVCRLDIEPRSSKTQEAA | strong labeling | strong labeling | strong labeling | over 11 fold |  |
| HsPheT413G: human phenylalanyl-tRNA synthetase with T413G substitution; SEQ ID NO:6 (protein) MADGQVAELLLRRLEASDGGLDSAELAAELGMEHQAVVGAVKSLQALGEVIEAELRSTKHWELTAEGEEIAREGSHEARVFRSIPPEGLAQSELMRLPSGKVGFSKAMSNKWIRVDKSAADGPRVFRVVDSMEDEVQRRLQLVRGGQAEKLGEKERSELRKRKLLAEVTLKTYWVSKGSAFSTSISKQETELSPEMISSGSWRDRPFKPYNFLAHGVLPDSGHLHPLLKVRSQFRQIFLEMGFTEMPTDNFIESSFWNFDALFQPQQHPARDQHDTFFLRDPAEALQLPMDYVQRVKRTHSQGGYGSQGYKYNWKLDEARKNLLRTHTTSASARALYRLAQKKPFTPVKYFSIDRVFRNETLDATHLAEFHQIEGVVADHGLTLGHLMGVLREFFTKLGITQLRFKPAYNPYGEPSMEVFSYHQGLKKWVEVGNSGVFRPEMLLPMGLPENVSVIAWGLSLERPTMIKYGINNIRELVGHKVNLQMVYDSPLCRLDAEPRPPPTQEAA | strong labeling | strong labeling | strong labeling |  |  |
| ScTyrY43G: yeast tyrosyl-tRNA synthetase with Y43G substitution, charges AzY onto tRNA-Tyr; SEQ ID NO:4 (protein) MSSAATVDPNEAFGLITKNLQEVLNPQIIKDVLEVQKRHLKLGWGTAPTGRPHCGYFVPMTKLADFLKAGCEVTVLLADLHAFLDNMKAPLEVVNYRAKYYELTIKAILRSINVPIEKLKFVVGSSYQLTPDYTMDIFRLSNIVSQNDAKRAGADVVKQVANPLLSGLIYPLMQALDEQFLDVDCQFGGVDQRKIFVLAEENLPSLGYKKRAHLMNPMVPGLAQGGKMSASDPNSKIDLLEEPKQVKKKINSAFCSPGNVEENGLLSFVQYVIAPIQELKFGTNHFEFFIDRPEKFGGPITYKSFEEMKLAFKEEKLSPPDLKIGVADAINELLEPIRQEFADNKEFQEASEKGYPVATPQKSKKAKKPKNKGTKYPGATKTNEIATKLEETKL | strong labeling | strong labeling | strong labeling |  | ~250 fold |
